Results on 34 molecules are retold here after US20210395381A1 (OSSIANIX, published 2021).

Test [1] deals with T1, recombinant mouse TfR-1 (mouse, UniProt Q62351 89-763).
T1 construct: Recombinant protein coated at 1 ug/ml in the phage ELISA; also called mTfR1; mouse transferrin receptor-1
In words: phage ELISA. A general note: In an ELISA, binding on a coated surface is turned into a signal by an enzyme label.

The target in test [2] is T2, recombinant human TfR-1 (human, UniProt P02786 89-760).
T2 construct: Recombinant protein coated at 1 ug/ml in the phage ELISA; also called hTfR1; human transferrin receptor-1
In words: phage ELISA.

Where a chain is given by its changes, count along the chain named.

T2 sequence (P02786 89-760 limits assumed): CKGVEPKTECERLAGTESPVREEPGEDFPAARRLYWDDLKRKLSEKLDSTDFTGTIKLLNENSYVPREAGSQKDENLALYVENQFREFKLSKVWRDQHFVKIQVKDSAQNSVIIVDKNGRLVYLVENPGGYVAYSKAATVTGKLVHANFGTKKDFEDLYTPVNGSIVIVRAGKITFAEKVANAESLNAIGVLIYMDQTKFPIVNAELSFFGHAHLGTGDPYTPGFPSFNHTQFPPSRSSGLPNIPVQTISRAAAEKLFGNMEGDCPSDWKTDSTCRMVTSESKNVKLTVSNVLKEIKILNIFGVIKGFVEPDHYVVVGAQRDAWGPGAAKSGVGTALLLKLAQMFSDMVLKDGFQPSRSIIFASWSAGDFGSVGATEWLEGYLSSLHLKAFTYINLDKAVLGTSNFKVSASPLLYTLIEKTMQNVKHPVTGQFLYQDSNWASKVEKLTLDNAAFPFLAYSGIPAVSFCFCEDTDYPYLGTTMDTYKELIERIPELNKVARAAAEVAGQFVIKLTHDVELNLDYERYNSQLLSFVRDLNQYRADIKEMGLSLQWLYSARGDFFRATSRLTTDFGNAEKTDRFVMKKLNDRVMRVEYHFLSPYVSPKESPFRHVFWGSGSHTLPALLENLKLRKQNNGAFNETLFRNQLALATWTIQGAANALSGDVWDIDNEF
T1 sequence (Q62351 89-763 limits assumed): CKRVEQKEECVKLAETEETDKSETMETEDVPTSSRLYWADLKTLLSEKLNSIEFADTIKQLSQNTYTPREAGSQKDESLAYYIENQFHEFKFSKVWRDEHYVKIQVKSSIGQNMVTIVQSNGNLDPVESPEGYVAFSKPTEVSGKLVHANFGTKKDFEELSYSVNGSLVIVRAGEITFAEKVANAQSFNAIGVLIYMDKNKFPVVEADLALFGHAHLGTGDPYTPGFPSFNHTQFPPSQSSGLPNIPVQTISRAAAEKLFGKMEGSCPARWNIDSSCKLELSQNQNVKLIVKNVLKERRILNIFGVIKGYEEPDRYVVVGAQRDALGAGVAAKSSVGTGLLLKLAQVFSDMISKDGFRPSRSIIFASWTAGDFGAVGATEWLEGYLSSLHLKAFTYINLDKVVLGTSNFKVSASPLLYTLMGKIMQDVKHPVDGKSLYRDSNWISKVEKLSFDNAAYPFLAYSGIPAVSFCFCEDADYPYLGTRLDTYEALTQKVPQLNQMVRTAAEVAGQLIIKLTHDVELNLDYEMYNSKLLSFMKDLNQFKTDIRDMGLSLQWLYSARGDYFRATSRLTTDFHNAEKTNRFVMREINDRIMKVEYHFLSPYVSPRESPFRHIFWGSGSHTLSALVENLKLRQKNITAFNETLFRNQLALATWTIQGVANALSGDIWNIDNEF

B1: Clone 8.47 (VNAR)
VNAR: ARVDQTPQTITKETGESLTINCVLRDSNCALPSTYWYRKKSGSTNEESISKGGRYVETVNSGSKSFSLRINDLTVEDSGTYRCKVQTTLSSILRGCNYRKHDVYGDGTAVTVNA
notes: VNAR on phage; Clone 8 framework
As for B1, the A450 in test [1] amounted to 0.067 A450; in test [2], 0.072 A450.

B2: Clone 8.73 (VNAR)
VNAR: B1 VNAR with Q86I, T87A, T88Q, R94K
notes: as for B1
For the molecule B2, the A450 in test [1] was 0.059 A450; in test [2], 0.051 A450.

B3: Clone 8.76 (VNAR)
VNAR: B1 VNAR with T87E, T88E
notes: as for B1
On to B3, for which the results for the A450 in test [1] and in test [2] were 0.059 A450 and 0.05 A450, respectively.

B4: Clone 8.69 (VNAR)
VNAR: B1 VNAR with Q86I, T87A, T88Q, I92A, L93P, R94A
notes: as for B1
As for B4, the A450 came to 0.061 A450 in test [1] and 0.065 A450 in test [2].

B5: Clone 8.48 (VNAR)
VNAR: B1 VNAR with Q86I, T87A, T88Q, R99M, K100M, H101Y
notes: as for B1
Take B5: the figures for the A450 in test [1] and in test [2] were 0.066 A450 and 0.082 A450, respectively.

B6: Clone 8.75 (VNAR)
VNAR: B1 VNAR with Q86I, T87A, T88Q, S90T, S91E, I92M
notes: as for B1
For the molecule B6, the results for the A450 in test [1] and in test [2] were 0.059 A450 and 0.049 A450, respectively.

B7: Clone 8.67 (VNAR)
VNAR: B1 VNAR with Q86I, T87A, T88Q, N97V, Y98E, R99P
notes: as for B1
As to B7, the A450 amounted to 0.062 A450 in test [1] and 0.051 A450 in test [2].

B8: Clone 8.65 (VNAR)
VNAR: B1 VNAR with Q86I, T87A, T88Q, L93H, R94D
notes: as for B1
Take B8: the figures for the A450 in test [1] and in test [2] were 0.062 A450 and 0.081 A450, respectively.

B9: Clone 8.80 (VNAR)
VNAR: B1 VNAR with Q86I, T87A, T88Q, S90P, S91H, I92D
notes: as for B1
Regarding B9, the A450 in test [1] worked out at 0.057 A450; in test [2], 0.059 A450.

B10: Clone 8.68 (VNAR)
VNAR: B1 VNAR with Q86I, T87A, T88Q, R94S, G95S, N97H
notes: as for B1
In the case of B10, the A450 in test [1] amounted to 0.062 A450; in test [2], 0.056 A450.

B11: Clone 8.62 (VNAR)
VNAR: B1 VNAR with Q86I, T87A, T88Q, R99A, K100A, H101G
notes: as for B1
For the molecule B11, the values for the A450 in test [1] and in test [2] were 0.063 A450 and 0.056 A450, respectively.

B12: Clone 8.52 (VNAR)
VNAR: B1 VNAR with Q86I, T87A, T88Q, N97D, Y98R, R99W
notes: as for B1
With B12, the A450 in test [1] came out at 0.065 A450; in test [2] it was 0.049 A450.

B13: Clone 8.70 (VNAR)
VNAR: B1 VNAR with Q86I, T87A, T88Q, R99Q, K100T, H101S
notes: as for B1
With B13, the A450 is 0.061 A450 in test [1] and 0.052 A450 in test [2].

B14: Clone 8.60 (VNAR)
VNAR: B1 VNAR with Q86I, T87A, T88Q, R94L, G95T, N97L
notes: as for B1
Consider B14, for which the A450 in test [1] was 0.063 A450; in test [2], 0.073 A450.

B15: Clone 8.57 (VNAR)
VNAR: B1 VNAR with Q86I, T87A, T88Q, S90G, S91N, I92L
notes: as for B1
In the case of B15, the A450 in test [1] came to 0.063 A450; in test [2], 0.083 A450.

B16: Clone 8.50 (VNAR)
VNAR: B1 VNAR with Q86I, T87A, T88N
notes: as for B1
Consider B16, for which the figures for the A450 in test [1] and in test [2] were 0.065 A450 and 0.057 A450, respectively.

B17: Clone 8.56 (VNAR)
VNAR: B1 VNAR with Q86I, T87A, T88Q, N97T, Y98F, R99D
notes: as for B1
Turning to B17, the A450 in test [1] was 0.064 A450; in test [2], 0.051 A450.

B18: Clone 8.59 (VNAR)
VNAR: B1 VNAR with Q86I, T87A, T88Q, I92H, L93D, R94H
notes: as for B1
As to B18, the A450 in test [1] came to 0.063 A450; in test [2], 0.073 A450.

B19: Clone 8.49 (VNAR)
VNAR: B1 VNAR with Q86I, T87A, T88E, L89M, S90G
notes: as for B1
On to B19, for which the results for the A450 in test [1] and in test [2] were 0.065 A450 and 0.06 A450, respectively.

B20: Clone 8.72 (VNAR)
VNAR: B1 VNAR with Q86I, T87A, T88Q, N97S, Y98G, R99V
notes: as for B1
Regarding B20, the A450 in test [1] was found to be 0.06 A450; in test [2], 0.063 A450.

B21: Clone 8.74 (VNAR)
VNAR: B1 VNAR with Q86I, T87A, T88Q, I92L, L93Q, R94D, N97I
notes: as for B1
Regarding B21, the figures for the A450 in test [1] and in test [2] were 0.059 A450 and 0.061 A450, respectively.

B22: Clone 8.61 (VNAR)
VNAR: B1 VNAR with Q86I, T87A, T88Q, R94Q, G95R
notes: as for B1
As to B22, the A450 in test [1] is 0.063 A450; in test [2], 0.067 A450.

B23: Clone 8.51 (VNAR)
VNAR: B1 VNAR with Q86I, T87A, T88Q, I92D, L93H, R94P
notes: as for B1
Regarding B23, the A450 in test [1] is 0.065 A450; in test [2], 0.058 A450.

B24: Clone 8.63 (VNAR)
VNAR: B1 VNAR with Q86Y, T87R, T88Y
notes: as for B1
As to B24, the A450 in test [1] worked out at 0.063 A450; in test [2], 0.071 A450.

B25: Clone 8.71 (VNAR)
VNAR: B1 VNAR with Q86I, T87A, T88Q, N97T, Y98P, R99H
notes: as for B1
As to B25, the values for the A450 in test [1] and in test [2] were 0.061 A450 and 0.073 A450, respectively.

B26: Clone 8.55 (VNAR)
VNAR: B1 VNAR with Q86I, T87A, T88Q, R94F, G95W, N97A
notes: as for B1
Consider B26, for which the figures for the A450 in test [1] and in test [2] were 0.064 A450 and 0.055 A450, respectively.

B27: Clone 8.64 (VNAR)
VNAR: B1 VNAR with Q86I, T87A, T88Q, S90A, S91F, I92W
notes: as for B1
Take B27: the A450 in test [1] was found to be 0.062 A450; in test [2] it was 0.083 A450.

B28: Clone 8.58 (VNAR)
VNAR: B1 VNAR with Q86I, T87A, T88Q, I92A, L93G, R94M
notes: as for B1
Turning to B28, the A450 came out at 0.063 A450 in test [1] and 0.059 A450 in test [2].

B29: Clone 8.79 (VNAR)
VNAR: B1 VNAR with Q86M, T87N, T88Q, S90D, S91H, I92F
notes: as for B1
On to B29, for which the A450 in test [1] stood at 0.058 A450; in test [2], 0.061 A450.

B30: Clone 8.77 (VNAR)
VNAR: B1 VNAR with Q86I, T87A, T88Q, N97H, Y98L, R99W
notes: as for B1
As to B30, the A450 came out at 0.058 A450 in test [1] and 0.055 A450 in test [2].

B31: Clone 8.66 (VNAR)
VNAR: B1 VNAR with Q86I, T87A, T88Q, R99L, K100A
notes: as for B1
In the case of B31, the A450 in test [1] is 0.062 A450; in test [2], 0.052 A450.

B32: Clone 8.54 (VNAR)
VNAR: B1 VNAR with Q86I, T87A, T88S, L89A, S90V
notes: as for B1
Regarding B32, the values for the A450 in test [1] and in test [2] were 0.065 A450 and 0.072 A450, respectively.

B33: Clone 8.53 (VNAR)
VNAR: B1 VNAR with Q86I, T87A, T88Q, R99A, K100W, H101L
notes: as for B1
Turning to B33, the A450 in test [1] worked out at 0.065 A450; in test [2] it was 0.051 A450.

B34: Clone 8.78 (VNAR)
VNAR: B1 VNAR with Q86I, T87A, T88Q, I92V, L93V, R94I, R99S
notes: as for B1
As to B34, the A450 in test [1] was 0.058 A450; in test [2], 0.049 A450.
